According to the supplement of paper PMC9112550, “Optimization of the antimicrobial peptide Bac7 by deep mutational scanning” (BMC Biology, 2022):

System: Escherichia coli TOP10
Assay: shrunken log2 fold change of peptide-encoding DNA abundance (4.5 h post-induction vs induction); higher = less antimicrobial activity (less host growth inhibition)
Settings: time post-induction: 4.5 h; library: site-saturation at positions 5, 18, 19, 20
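Note: peptides expressed intracellularly from a pBAD plasmid library in pooled LB shake-flask culture, induced with 0.3% L-arabinose, DNA abundance read by NGS, three biological replicates, DESeq2 with apeglm shrinkage.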

Sequence	shrunken log2 fold change
RRIRYRPPRLPRPRPRPGTFPRP	-0.53
RRIRGRPPRLPRPRPRPGGWPRP	1.58
RRIRYRPPRLPRPRPRPGPHPRP	-0.115
RRIRCRPPRLPRPRPRPLETPRP	-0.012
RRIRIRPPRLPRPRPRPQGFPRP	-0.129
RRIRYRPPRLPRPRPRPHASPRP	0.0262
RRIRKRPPRLPRPRPRPMHWPRP	0.136
RRIRFRPPRLPRPRPRPNMIPRP	-0.495
RRIRWRPPRLPRPRPRPRLHPRP	0.191
RRIRIRPPRLPRPRPRPNTAPRP	-0.0523
RRIRDRPPRLPRPRPRPCRNPRP	-0.000921
RRIRNRPPRLPRPRPRPNFAPRP	0.0544
RRIRSRPPRLPRPRPRPQNHPRP	-0.604
RRIRFRPPRLPRPRPRPHLQPRP	-0.144
RRIRERPPRLPRPRPRPDFRPRP	-0.0858
RRIRDRPPRLPRPRPRPYYFPRP	-0.209
RRIRIRPPRLPRPRPRPLESPRP	0.0516
RRIRHRPPRLPRPRPRPVNWPRP	0.18
RRIRARPPRLPRPRPRPECEPRP	0.0705
RRIRDRPPRLPRPRPRPTGYPRP	0.0485
RRIRWRPPRLPRPRPRPMCAPRP	0.713
RRIRTRPPRLPRPRPRPPVAPRP	0.428
RRIRGRPPRLPRPRPRPMDFPRP	0.213
RRIRPRPPRLPRPRPRPLHNPRP	-0.201
RRIRMRPPRLPRPRPRPKGYPRP	-0.0135

Sequence	shrunken log2 fold change
RRIRQRPPRLPRPRPRPVIHPRP	-0.455
RRIRHRPPRLPRPRPRPRHDPRP	-0.0713
RRIRDRPPRLPRPRPRPTCQPRP	1.08
RRIRCRPPRLPRPRPRPYGQPRP	-1.33
RRIRVRPPRLPRPRPRPLHIPRP	-0.528
RRIRGRPPRLPRPRPRPHEMPRP	0.143
RRIRYRPPRLPRPRPRPAEPPRP	0.0314
RRIRHRPPRLPRPRPRPRASPRP	0.286
RRIRQRPPRLPRPRPRPILFPRP	0.0255
RRIRCRPPRLPRPRPRPPYKPRP	-0.511
RRIRCRPPRLPRPRPRPDMFPRP	-0.148
RRIRERPPRLPRPRPRPGWPPRP	0.398
RRIRFRPPRLPRPRPRPWFMPRP	-0.609
RRIRNRPPRLPRPRPRPGGMPRP	-0.0941
RRIRQRPPRLPRPRPRPKSKPRP	-0.123
RRIRARPPRLPRPRPRPIGKPRP	-0.00841
RRIRYRPPRLPRPRPRPYHWPRP	-0.115
RRIRERPPRLPRPRPRPVDLPRP	-0.103
RRIRMRPPRLPRPRPRPNKSPRP	0.0117
RRIRSRPPRLPRPRPRPTFGPRP	-0.0366
RRIRPRPPRLPRPRPRPECFPRP	0.122
RRIRSRPPRLPRPRPRPHFLPRP	-0.318
RRIRSRPPRLPRPRPRPPNHPRP	-0.16
RRIRERPPRLPRPRPRPVSEPRP	0.164
RRIRARPPRLPRPRPRPKYKPRP	-0.31

Sequence	shrunken log2 fold change
RRIRARPPRLPRPRPRPDDLPRP	-0.00225
RRIRGRPPRLPRPRPRPCFFPRP	0.392
RRIRQRPPRLPRPRPRPEQYPRP	-0.0417
RRIRARPPRLPRPRPRPHSCPRP	0.0724
RRIRPRPPRLPRPRPRPLAHPRP	0.183
RRIRLRPPRLPRPRPRPNPGPRP	-0.213
RRIRERPPRLPRPRPRPNEAPRP	-0.0218
RRIRKRPPRLPRPRPRPLYWPRP	0.149
RRIRFRPPRLPRPRPRPQQQPRP	0.0282
RRIRVRPPRLPRPRPRPMKGPRP	-0.01
RRIRERPPRLPRPRPRPTHKPRP	0.0682
RRIRPRPPRLPRPRPRPHGTPRP	-0.0314
RRIRFRPPRLPRPRPRPTMQPRP	0.219
RRIRPRPPRLPRPRPRPRGGPRP	0.605
RRIRARPPRLPRPRPRPKPAPRP	0.711
RRIRMRPPRLPRPRPRPQIPPRP	-0.127
RRIRHRPPRLPRPRPRPPAIPRP	0.0959
RRIRFRPPRLPRPRPRPYCFPRP	-0.615
RRIRCRPPRLPRPRPRPSETPRP	0.108
RRIRDRPPRLPRPRPRPRARPRP	0.601
RRIRNRPPRLPRPRPRPTSTPRP	-0.7
RRIRQRPPRLPRPRPRPVHWPRP	0.188
RRIRNRPPRLPRPRPRPPIEPRP	0.0957
RRIRERPPRLPRPRPRPQYWPRP	-0.617
RRIRLRPPRLPRPRPRPCKLPRP	-0.114
